Experimental data as given in publication PMC7718890.

Assays:
CarD K90A;MTB RNAP (WT) = CarD K90A;MTB RNAP (WT) (Mycobacterium …, UniProt P9WJG3;P9WGZ1;P9WGY9;P9WGY7;P9WGY5 1-162;1-347;1-1178;1-1316;1-110, K90A|); assay: competition (fluorescence polarization); settings: protein: recombinant;recombinant; tags: ;; copies: 1;2;1;1;1; blunt
CarD R47E;MTB RNAP (WT) = CarD R47E;MTB RNAP (WT) (Mycobacterium …, UniProt P9WJG3;P9WGZ1;P9WGY9;P9WGY7;P9WGY5 1-162;1-347;1-1178;1-1316;1-110, R47E|); assay: competition (fluorescence polarization); settings: protein: recombinant;recombinant; tags: ;; copies: 1;2;1;1;1; blunt

B1: rrnAP3 native 61 bp (dsDNA)
DNA 1: GATGACCGAACCTGGTCTTGACTCCATTGCCGGATTTGTATTAGACTGGCAGGGTTGCCCC
DNA 2: GGGGCAACCCTGCCAGTCTAATACAAATCCGGCAATGGAGTCAAGACCAGGTTCGGTCATC
With B1 the Ki (CarD K90A;MTB RNAP (WT)) was 85 ± 6 nM and the Ki (CarD R47E;MTB RNAP (WT)) was 129 ± 14 nM.
